Measured values as given in the Human Domainome abundance scans (Beltran et al. 2025).

B1: Ankyrin repeat and SOCS box protein 14, residues 532 to 572; numbered along this chain, A6NK59 (parent)
chain: RSLKHLCRLKIRKCMGRLHLRCPVFMSFLPLPNRLKAYVLY

Variants of: B1
Assay: abundance fitness (aPCA) (normalised: wild type 0, dead -1); higher = more abundant; growth selection in yeast, the domain comes from the species named
Conditions: Homo sapiens

Abundance fitness, by site and new letter:
R34: M -0.714; T -0.203; W 0.022; P -0.582; Y -0.155; F -0.168; G -0.29; A -0.255; E -0.054; C -0.204; Q -0.44; S -0.218; L -0.709; V -0.447; K -0.166; H -0.455
L35: E -1.12; R -1.28; W 0.044; N -0.729; G -1.13; D -1.24; A -0.466; H -0.955; I -0.18; P -0.913; T -0.966; C -0.135; V -0.103; S -0.66; K -1.29
K36: P -0.725; I -0.274; N -0.932; A -0.382; S -0.662; E -0.732; F -0.022; Q -0.374; C -0.398; G -0.599; V -0.051; Y -0.335; T -0.423; M -0.398; L -0.242; W -0.062; R -0.294
A37: L -0.404; W -0.502; E 0.021; S -0.143; H -0.118; M -0.207; G -0.291; C -0.091; V -0.482; Q 0.083; R -0.002; P -0.995
N33: Q 0.111; W -0.528; M -0.629; S 0.105; K -0.222; Y -0.586; L -0.432; R 0.044; P -0.004
V39: W -0.43; I -0.022; A -0.361; D -0.95; Q -1.3; T -0.186; L -0.098; G -0.743; S -0.779
L40: R 0.055; V -0.132; P -0.405; T -0.247; D -0.113; G -0.312; A -0.075; E 0.031; Q -0.192; S -0.092
Y41: V 0.398; T 0.169; N -0.052; M 0.257; S 0.356; R 0.373; W 0.072; G 0.368; C 0.146; H 0.12
Y38: T -0.478; R -0.446; Q -0.45; H -0.535; I -0.293; M -0.454; V -0.558; D -0.681; W 0.295; L -0.346; G -0.59; S -0.436; K -0.485; C -0.622; A -0.343; E -0.599; P -0.731
